± gives the uncertainty stated by the source.
Experiment: amyloid nucleation score (Sup35N fusion, yeast selection) (log enrichment); library NNK1; higher = more nucleation; inactive = no reads after selection
Procedure, shortened: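 Three technical output replicates were used for random libraries. Psi-negative yeast expressing peptides of 20 random codons fused to Sup35N were induced with 100 μM copper sulfate for 24 hours and grown 7 days at 30°C on medium lacking adenine and uracil, and input and output plasmid inserts were Illumina-sequenced, excluding sequences with under 100 input reads. The nucleation score is the DiMSum log enrichment of output over input reads, centred on the mode score of non-aggregating sequences.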

Substance | amyloid nucleation score
MDAFTNAWVMGWCMLHCARG | 0.524 ± 0.7
RVYLFNYICGGLDFFLRPTV | 5.37 ± 0.081
LIISFVIVSRMLSVRFSTIV | 0.262 ± 0.61
FIFWGDLFWV | -0.992 ± 0.32
SCCWVSIDSNQCHRACTVRT | -0.136 ± 0.56
YSVLVPIPLSCCISDVLYCT | 5.61 ± 0.064
AYGLNARIHTATGECLLGYA | -0.143 ± 0.24
LDLAFSFLHSTNIWTTFGLC | -1.6 ± 1.4
NSRSGLMNLVEKSLLYKMLY | -0.007 ± 0.48
SCYTVYQLGLDVGRGVDLEF | -0.013 ± 0.58
HEKVV | 0.292 ± 0.32
LTVGYSRYIPVRYGF | -1.08 ± 0.43
GRGSMLFW | 0.942 ± 0.58
HAVQLRYLKKKWGWYALCKR | 0.712 ± 0.72
SYYIC | 0.583 ± 0.41
VAGAVNNSWWGLSNVARAKR | 0.082 ± 0.54
SFDGLYLNSCRFSLPCLLSR | 0.196 ± 0.26
GIRVFPMCNFG | inactive
RYIVVG | 0.106 ± 0.24
SINVPPHSGHELH | 1.12 ± 0.76
LKIEPRC | -0.512 ± 0.4
MYHLSGVSYMFSLCSDCRRL | 8.122 ± 0.066

Substance | amyloid nucleation score
SSFKWLAASWLQGALHTMRG | -0.348 ± 0.79
AARVGVVVF | 0.065 ± 0.41
YCCYAVRACFN | 7.509 ± 0.057
GGRLRW | 0.452 ± 0.48
GLLSK | -0.062 ± 0.56
CFIDQYVVTNCSLLTYFM | 0.145 ± 0.88
TKLAY | 0.445 ± 0.49
TGYRFLSIIIAAADSDCELS | -0.706 ± 1.2
IRVGGIWRGCCGVDLCYLTI | -0.627 ± 0.61
ENCFSCNEYCERYSPALCGQ | inactive
EGHARKKEWLTITPRER | 0.261 ± 0.38
LMKCCNVMGCGDDA | 2.45 ± 0.15
SKDGCSCFDIDVAMEGLLMR | -0.053 ± 1.1
SMSPVSSVTN | 0.07 ± 0.35
LRKNSPTFRGSPCQQWYVER | 1.27 ± 0.56
IHQEIVNVNTIVCN | -0.147 ± 0.25
KISYADF | 0.646 ± 1.1
AFDQGGIYTVPSGKNFPCTL | -0.186 ± 0.4
YTDAIYHPIPRTGMYSWC | -0.194 ± 0.34
LGLTYWCYNFIQGDVFPPVQ | 3.46 ± 0.15
ESCKSVNCLMRQGDLRVTAW | -0.122 ± 0.3
MDPIPREAQVKVLSSHTTIG | 0.606 ± 0.53

Substance | amyloid nucleation score
CSLTKQRCYFEQLMSGPPCL | -0.329 ± 0.35
AIQYHNWGSEACLWHERESG | 0.225 ± 0.26
YAHGGWDLVRRNS | 0.232 ± 0.86
MTAGLHQ | 3.47 ± 0.082
GISSSTLTFRTMWEDRCVEG | 0.825 ± 0.66
HHVAVSLDANLNFFTLWLER | 3.81 ± 0.12
IYNFSKYPVFGKTRALGFNF | -0.395 ± 0.67
CFGCF | 2.23 ± 0.17
SFLLGQGTL | 0.724 ± 0.69
DTSSACLCNRDRSDLLVCRV | inactive
NVWSKWCERGNSDPIVPQAA | -0.458 ± 0.35
IICISFWSVKLVDHPMVSNG | 0.726 ± 0.75
LHSIDVDIDVEFLSTHRDGP | inactive
SGTRELALGRFHTCCNQRGK | 0.442 ± 0.27
LRARVGGVEFVYSVQRRLKP | -0.167 ± 0.62
KLETYYGAFNFNWFLSLNGD | 5.08 ± 0.061
GYWPNKRWSRMKPIYPHSNV | 1.34 ± 0.18
NDYTELEIFCNLLRLMFWVV | -0.162 ± 0.48
SKSYFSIV | -0.361 ± 0.39
MIGNRY | 0.091 ± 0.26
VVLQVMFARAWWFF | 0.185 ± 0.33
LFMLSSVGASMYFMG | 1.69 ± 0.19

Substance | amyloid nucleation score
CIYWALGRAMRLPSGTGARG | 0.099 ± 0.95
NCSDQALDLQGSMSVQKIFR | -0.533 ± 0.88
FIWSVTYSGP | 1.48 ± 0.72
MPCHAFAKMFVQSEFSGSVC | 0.498 ± 0.97
FTSLNVRKLRGACRTTSSHG | -0.077 ± 0.61
IRIKDTFESWYSLINEDLGH | inactive
VICFWTLSRFYRGRD | -1.13 ± 0.62
TMLLDAYHEFKWANTNLFWL | -0.263 ± 0.93
SFCNFQGVRFFL | 1.73 ± 0.2
SNKTSKDGCEFQVVQLVQRV | -0.059 ± 0.33
ALAVVVLFLCVSTPAYVAFE | 0.923 ± 0.53
FRVLWDYCVSSTVRRVTSLG | inactive
KVNLTSCSY | -0.059 ± 0.42
GMMHFGCGFSFWWNNFRQWW | 2.49 ± 0.19
FGGSLMASFDCTRPSSMER | -0.606 ± 1.6
VCSGTFGYHRRYEWDWVLKG | 0.215 ± 1.2
SHTTILTSWRSYKKMKASNA | 0.496 ± 0.43
HWSSSS | -0.745 ± 0.66
TFRGNRIINQNWGYHCMWWC | 5.733 ± 0.056
DWVPLKSHISWLSVTRVLIV | 0.636 ± 0.46
CCLTWAPTRDPFCLVTGVCR | 0.193 ± 1.1

Source: the supplement of paper PMC12042874
